Results: the supplement of paper PMC11780869

System: Bacillus subtilis
Assay: cleaved RNA product abundance (RNA/gDNA barcode ratio) relative to median wild-type variant (ratio to wild type); higher = more accumulation of the downstream cleavage product
Summary of the method: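 Cleaved product abundance is expressed as the RNA:gDNA barcode ratio per construct, scaled to the median construct carrying the unmutated site. The constructs were barcoded, mutagenized RNase Y cleavage-site windows in truncated aprE or tetM reporter mRNAs integrated into the B. subtilis chromosome. Cultures grew in LB at 37°C from OD600 0.0003 to 0.3 before cleaved RNA was gel-selected and barcode-sequenced.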

[1] = experiment (reporter, strain, medium): exp 4a: truncated aprE reporter, strain BJT201 with 2% xylose (RNase J1 expressed), cleavage site: cggR-gapA (positions -7 to +36 mutated)
[2] = experiment (reporter, strain, medium): exp 2b: truncated aprE reporter, strain BJT200, cleavage site: cggR-gapA (positions -7 to +36 mutated)
[3] = experiment (reporter, strain, medium): exp 8a: truncated aprE reporter, strain BJT201 with 2% xylose (RNase J1 expressed), cleavage site: glnRA (positions -5 to +31 mutated)

Sequence: ACAGACGAAGGAGCCGCAAAGAAGTTATTATGGGATGAATAATCCCTCATTATAAATATCTCTCACTTATTTAAA
- cleaved RNA product abundance [1]: 0.528

Sequence: ACAGACGAAGGAGCCGCAAAGAAGTTCTTAAGGGATAAATAATCCCTCAATATAAATATCTCTCACTTATTTAAA
- cleaved RNA product abundance [2]: 0.104
- cleaved RNA product abundance [1]: 0.212

Sequence: ACAGACGAAGGAGCCGCAAAGAAGTTATAAAGGGATGAATAATCCTTCAATATAAATATCTCTCACTTATTTAAA
- cleaved RNA product abundance [2]: 0.174
- cleaved RNA product abundance [1]: 0.283

Sequence: ACAGACGAAGGAGCCGCAAAGAAGTTATTATGGCATGAATAATCCCTCAATATAAATATCTCTCACTTATTTAAA
- cleaved RNA product abundance [2]: 0.0973
- cleaved RNA product abundance [1]: 0.184

Sequence: CGACATGTCCCGCTTCTTTCATTAATACGTTAGCAACTGTTTTGTTATATACATTTACCTTTTAAGAGGAGGAAT
- cleaved RNA product abundance [3]: 0.372

Sequence: ACAGACGAAGGAGCCGCAAAGACGTTATTAAGGAATGAATAATCCCTCAATATAAATATCTCTCACTTATTTAAA
- cleaved RNA product abundance [1]: 0.14

Sequence: CGACATGTCCCGCTTCTTTCATTAATTCGTCAGCAACTGTTTTGCTATATACATTTACCTTTTAAGAGGAGGAAT
- cleaved RNA product abundance [3]: 0.639

Sequence: ACAGACGAAGGAGCCGCAAAGTAGTAATTAAGGGATGAATAATCCCTCAATATAAATATCTCTCACTTATTTAAA
- cleaved RNA product abundance [1]: 0.191

Sequence: ACAGACGAAGGAGCCGCAAAGAAGTTATTAAGGCTTGAATAATCCCTCAATATAAATATCTCTCACTTATTTAAA
- cleaved RNA product abundance [2]: 0.115
- cleaved RNA product abundance [1]: 0.11

Sequence: ACAGACGAAGGAGCCGCAAAGAACTTATTAAGGGATGAATAATCCCTCTATATAAATATCTCTCACTTATTTAAA
- cleaved RNA product abundance [1]: 0.332

Sequence: CGACATGTCCCGCTTCTTTCATTAATCAGTTAGCAACTGTTTTGCTATACACATTTACCTTTTAAGAGGAGGAAT
- cleaved RNA product abundance [3]: 0.225

Sequence: CGACATGTCCCGCTTCTTTCATTAATCCGTTAGCATCTGTTTTGCTATATACATTTACATTTTAAGAGGAGGAAT
- cleaved RNA product abundance [3]: 1.1

Sequence: CGACATGTCCCGCTTCTTTCATTAAGCCGTTAGCAACTGTTTTGTTATATACATTTACCTTTTAAGAGGAGGAAT
- cleaved RNA product abundance [3]: 0.364

Sequence: ACAGACGAAGGAGCCGCAAATAAGTTATTAAGGGATGAATAATCCCTCAATATAAATTTCTCTCACTTATTTAAA
- cleaved RNA product abundance [1]: 0.862

Sequence: ACAGACGAAGGAGCCGCAAACAAGTTATTAAGAGATGAATAATCACTCAATATAAATATCTCTCACTTATTTAAA
- cleaved RNA product abundance [2]: 0.106
- cleaved RNA product abundance [1]: 0.126

Sequence: CGACATGTCCCGCTTCTTTCATTAATCCGTTAGCAAGTGTTTTGCTATATTCATTTACCTTTTAAGAGGAGGAAT
- cleaved RNA product abundance [3]: 0.488

Sequence: ACAGACGAAGGAGCCGCAAAGAAGTTATTAATGGATGAATAATCCCTCAAGATAAATATCTCTCACTTATTTAAA
- cleaved RNA product abundance [2]: 0.0884
- cleaved RNA product abundance [1]: 0.0994

Sequence: ACAGACGAAGGAGCCGCAAAGATGTTATTAAGGGATGAATAATCCCTCAACATAAATATCTCTCACTTATTTAAA
- cleaved RNA product abundance [1]: 0.223

Sequence: ACAGACGAAGGAGCCGCAAACAAGTTATTAAGGGATGAATAATCCCTCTATATAAATATCTCTCACTTATTTAAA
- cleaved RNA product abundance [1]: 0.46

Sequence: ACAGACGAAGGAGCCGCAAAGAAGTTATTAAAGGATGAATAATCCCTCAAAATAAATATCTCTCACTTATTTAAA
- cleaved RNA product abundance [2]: 0.148
- cleaved RNA product abundance [1]: 0.152

Sequence: ACAGACGAAGGAGCCGCAAAGAAGTTATTAAGGGATGAACATTCCCTCAATATAAATATCTCTCACTTATTTAAA
- cleaved RNA product abundance [1]: 0.633

Sequence: ACAGACGAAGGAGCCGCAAAGAAGTTATTAAGGGATGAAAAATACCTCAATATAAATATCTCTCACTTATTTAAA
- cleaved RNA product abundance [2]: 0.114
- cleaved RNA product abundance [1]: 0.169

Sequence: ACAGACGAAGGAGCCGCAAAGAAGTTATTAAGGAATGAATAATCCGTCAATATAAATATCTCTCACTTATTTAAA
- cleaved RNA product abundance [2]: 0.0733
- cleaved RNA product abundance [1]: 0.0653

Sequence: CGACATGTCCCGCTTCTTTCATTATTCCGTTAGCAACTGTTTTGCTATATATATTTACCTTTTAAGAGGAGGAAT
- cleaved RNA product abundance [3]: 1.45

Sequence: CGACATGTCCCGCTTCTTTCATTAATCCGTTACCAACTCTTTTGCTATATACATTTACCTTTTAAGAGGAGGAAT
- cleaved RNA product abundance [3]: 0.128

Sequence: ACAGACGAAGGAGCCGCTAAGAAGTTATTAAGGAATGAATAATCCCTCAATATAAATATCTCTCACTTATTTAAA
- cleaved RNA product abundance [1]: 0.0845

Sequence: ACAGACGAAGGAGCCGCAAAGAAATTATTAAGGGATGAATAATCCCTGAATATAAATATCTCTCACTTATTTAAA
- cleaved RNA product abundance [2]: 0.49
- cleaved RNA product abundance [1]: 0.548

Sequence: ACAGACGAAGGAGCCGCAAAGAAGTTATTAAGGGATGAATAATTCCTAAATATAAATATCTCTCACTTATTTAAA
- cleaved RNA product abundance [1]: 0.508

Sequence: CGACATGTCCCGCTTCTTTCATTAATCCCTTAGCAACTGTTTTGATATATACATTTAACTTTTAAGAGGAGGAAT
- cleaved RNA product abundance [3]: 0.245

Sequence: CGACATGTCCCGCTTCTTTCATTAATCCGTTAACAACTGTTTTGCTATATAGATTTACCTTTTAAGAGGAGGAAT
- cleaved RNA product abundance [3]: 0.201

Sequence: ACAGACGAAGGAGCCGCAAAGAAGTTATTAAGGGATGAATAATCCCGTAATATAAATATCTCTCACTTATTTAAA
- cleaved RNA product abundance [1]: 0.682

Sequence: ACAGACGAAGGAGCCGCAAAGAAGTTATTAAGTGTTGAATAATCCCTTAATATAAATATCTCTCACTTATTTAAA
- cleaved RNA product abundance [1]: 0.146

Sequence: CGACATGTCCCGCTTCTTTCATTATTCCGTTAGCAACTTTTTTGCTATATACTTTTACCTTTTAAGAGGAGGAAT
- cleaved RNA product abundance [3]: 0.558

Sequence: CGACATGTCCCGCTTCTTTCATTAATCCATTAGCAACTGTTTTGCTATATACATTTACCTTTTAAGAGGAGGAAT
- cleaved RNA product abundance [3]: 0.857

Sequence: ACAGACGAAGGAGCCGCAAAGAAGTGATTAAGGGATGAATAATCGCTCAATATAAATATCTCTCACTTATTTAAA
- cleaved RNA product abundance [1]: 0.0548

Sequence: ACAGACGAAGGAGCCGCAAAGAAGTCATTAAGGGATGAATAATCCCTCAAAATAAATATCTCTCACTTATTTAAA
- cleaved RNA product abundance [1]: 0.203

Sequence: ACAGACGAAGGAGCCGCAAAGAGGTTATTAAGGGATGAATAATCCATCAATATAAATATCTCTCACTTATTTAAA
- cleaved RNA product abundance [2]: 0.176

Sequence: ACAGACGAAGGAGCCGCAAAGAAGTTATTAAGGGATGAACAATTCCTCAATATAAATATCTCTCACTTATTTAAA
- cleaved RNA product abundance [1]: 0.44

Sequence: CGACATGTCCCGCTTCTTTCATTAATCCGTTAGCAACTTTTTTGTTATATACATTTACCTTTTAAGAGGAGGAAT
- cleaved RNA product abundance [3]: 0.748

Sequence: ACAGACGAAGGAGCCGCAAAGAAGCTATTAAGGGATGAATAATCCCTCAATATAAAAATCTCTCACTTATTTAAA
- cleaved RNA product abundance [1]: 0.713

Sequence: ACAGACGAAGGAGCCGCAAATAAGTTATTAAAGGATGAATAATCCCTCAATATAGATATCTCTCACTTATTTAAA
- cleaved RNA product abundance [1]: 0.188

Sequence: ACAGACGAAGGAGCCGCAAAGAAGTTATTAAGGGATGAATAATCCCTCAATATAATGATCTCTCACTTATTTAAA
- cleaved RNA product abundance [1]: 0.348

Sequence: CGACATGTCCCGCTTCTTTCATTAATCCGTTAGCAACTATTATGCTATATACATTTACCTTTTAAGAGGAGGAAT
- cleaved RNA product abundance [3]: 0.785

Sequence: ACAGACGAAGGAGCCGCAAAGAAGTTATTAAGGGAAGAATAATCCCTCAATATAAAAATCTCTCACTTATTTAAA
- cleaved RNA product abundance [1]: 0.563

Sequence: ACAGACGAAGGAGCCGCAAAGAAGTTATTAAGGGATGTATAATCCCTCAATATAAATCTCTCTCACTTATTTAAA
- cleaved RNA product abundance [1]: 0.82

Sequence: ACAGACGAAGGAGCCGCAAAGAATTTATTAAGGGATGAATAATCCCTCAATATTAATATCTCTCACTTATTTAAA
- cleaved RNA product abundance [2]: 0.109

Sequence: CGACATGTCCCGCTTCTTTCATTAATCAGTTAGCAACTGTTTTGCTATATACATTTACCTTTTAAGAGGAGGAAT
- cleaved RNA product abundance [3]: 0.763

Sequence: CGACATGTCCCGCTTCTTTCATTAATCCGTTAGCAACGGTTTTACTATATACATTTACCTTTTAAGAGGAGGAAT
- cleaved RNA product abundance [3]: 0.495

Sequence: CGACATGTCCCGCTTCTTTCATTATTCCGTTAGCAACTCTTTTGCTAAATACATTTACCTTTTAAGAGGAGGAAT
- cleaved RNA product abundance [3]: 0.422

Sequence: ACAGACGAAGGAGCCGCAAAGAAGTTATTAAGGGATGAATATTCCCTCAAGATAAATATCTCTCACTTATTTAAA
- cleaved RNA product abundance [2]: 0.254
- cleaved RNA product abundance [1]: 0.243

Sequence: ACAGACGAAGGAGCCGCAAAGAAGTTGTTAAGAGATGAATAATCCCTCAATATAAATATCTCTCACTTATTTAAA
- cleaved RNA product abundance [1]: 0.103

Sequence: ACAGACGAAGGAGCCGCAAAGAAGTTATTAAGGGATGAATATTCACTCAATATAAATATCTCTCACTTATTTAAA
- cleaved RNA product abundance [1]: 0.18

Sequence: CGACATGTCCCGCTTCTTTCATTAATCCGTTTGCAAATGTTTTGCTATATACATTTACCTTTTAAGAGGAGGAAT
- cleaved RNA product abundance [3]: 0.446

Sequence: ACAGACGAAGGAGCCGCAAATAAATTATTAAGGGATGAATATTCCCTCAATATAAATATCTCTCACTTATTTAAA
- cleaved RNA product abundance [1]: 0.421

Sequence: ACAGACGAAGGAGCCGCAAAGAAGTTATTAAGGGATGAGAAATCCCTCAATATAAATATCTCTCACTTATTTAAA
- cleaved RNA product abundance [1]: 0.604

Sequence: ACAGACGAAGGAGCCGCATAGAAATTATTAAGGGATGAATAATCCCTCAATATAAATATCTCTCACTTATTTAAA
- cleaved RNA product abundance [2]: 0.834
- cleaved RNA product abundance [1]: 0.574

Sequence: ACAGACGAAGGAGCCGCAAAGAAGTTATTAAGGGATGTATAATCCCCCAATATAAATATCTCTCACTTATTTAAA
- cleaved RNA product abundance [2]: 0.205

Sequence: ACAGACGAAGGAGCCGCAAAGAAGTTATTAAGGGATGAATAATGTCTCAATATAAATATCTCTCACTTATTTAAA
- cleaved RNA product abundance [1]: 0.0823

Sequence: ACAGACGAAGGAGCCGCAAAGAAGTTATTAAGAGATGACTAATCCCTCAATATAAATATCTCTCACTTATTTAAA
- cleaved RNA product abundance [2]: 0.082
- cleaved RNA product abundance [1]: 0.0924

Sequence: ACAGACGAAGGAGCCGCAAAGAAGTTATTAAGGGTTGAATAATCCTTCAATATAAATATCTCTCACTTATTTAAA
- cleaved RNA product abundance [1]: 0.358

Sequence: CGACATGTCCCGCTTCTTTCATTAATCCGTTAGCAACAGTTTTACTATATACATTTACCTTTTAAGAGGAGGAAT
- cleaved RNA product abundance [3]: 0.561

Sequence: ACAGACGAAGGAGCCGCAAAGAAGTTATTAAGGGATGAAGAATCCATCAATATAAATATCTCTCACTTATTTAAA
- cleaved RNA product abundance [2]: 0.124
